Laboratory results reported in paper PMC6321638, “Thermodynamic Characterization of the Ca^2+-Dependent Interaction Between SOUL and ALG-2” (International Journal of Molecular Sciences, 2018).

B1: His-SOUL^WT (wild-type SOUL fused to His-tag) (natural protein, mouse, UniProt Q9WU63 1-205, looked up)
chain: MAEEPEPDLGVAEGSEDQALEMPSWKAPEDIDPQPGSYEIRHYGPAKWVSTCVESLDWDSAIQTGFTKLNGYIQGKNEKEMKIKLTAPVTSYVEPGSSPFSESTITISLYIPSEQQPDPPRPSESDVFIEDRAEMTVFVRSFDGFSSGQKNQEQLLTLANILREEGKVFNEKVFYTAGYSSPFQLLDRNNEVWLIQKNEPSVENK
notes: Cloned into the Nde I and Sal I sites of pET28a(+); this probably gives an N-terminal His-tag with a thrombin site (surmised); Dimer by gel filtration; also called mSOUL; source: E. coli BL21(DE3) with pGroESL, purified (Ni-NTA-agarose, Sephadex G-25)
B3: delta3-23ALG-2^WT (domain or fragment, mouse, UniProt P12815 1-191, looked up)
chain: MADQSFLWNVFQRVDKDRSGVISDNELQQALSNGTWTPFNPVTVRSIISMFDRENKAGVNFSEFTGVWKYITDWQNVFRTYDRDNSGMIDKNELKQALSGFGYRLSDQFHDILIRKFDRQGRGQIAFDDFIQGCIVLQRLTDIFRRYDTDQDGWIQVSYEQYLSMVFSIV
notes: ALG-2 (PDCD6), murine, with deletion of the N-terminal 3-23 amino acids (the hydrophobic 21 residues); the plasmid paragraph calls it 24-191 amino acids, without tag; source: E. coli BL21-CodonPlus(DE3)-(RIPL), purified (Ca2+ precipitation, HiTrap Q, Sephacryl S-200 HR)
B6: GST-ALG-2^WT (wild-type ALG-2 fused to GST-tag) (natural protein, mouse, UniProt P12815 1-191, looked up)
chain: MAAYSYRPGPGGGPGPAAGAALPDQSFLWNVFQRVDKDRSGVISDNELQQALSNGTWTPFNPVTVRSIISMFDRENKAGVNFSEFTGVWKYITDWQNVFRTYDRDNSGMIDKNELKQALSGFGYRLSDQFHDILIRKFDRQGRGQIAFDDFIQGCIVLQRLTDIFRRYDTDQDGWIQVSYEQYLSMVFSIV
notes: ALG-2 (apoptosis-linked gene 2, PDCD6), murine, 1-191 amino acids; Cloned into the BamH I and Sal I sites of pGEX-4T-2; GST is probably N-terminal (surmised); also called apoptosis-linked gene 2 protein; PDCD6; source: E. coli BL21-CodonPlus(DE3)-(RIPL), purified (ammonium sulfate, Glutathione Sepharose, Sephadex G-25)
B7: delta3-23ALG-2^∆GF (domain or fragment, mouse, UniProt P12815 1-191, looked up)
chain: MADQSFLWNVFQRVDKDRSGVISDNELQQALSNGTWTPFNPVTVRSIISMFDRENKAGVNFSEFTGVWKYITDWQNVFRTYDRDNSGMIDKNELKQALSGYRLSDQFHDILIRKFDRQGRGQIAFDDFIQGCIVLQRLTDIFRRYDTDQDGWIQVSYEQYLSMVFSIV
notes: ALG-2 (PDCD6), murine, deletion of the N-terminal 3-23 amino acids and of Gly121 and Phe122 (splice variant); numbers count on full-length ALG-2^WT; N-terminus as for m3; source: E. coli, purified (as delta3-23ALG-2)

Columns and labels:
delta3-23ALG-2^WT [1] = molecular target: B3; experiment: ITC; His-SOUL (130 or 260 µM) injected into delta3-23ALG-2 (5 or 10 µM); 25 °C, pH 7.5, buffer C (25 mM HEPES, 150 mM NaCl, 10% glycerol) with 15 µM CaCl2 and 0.25% Tween 20; one-set-of-sites model (sequential-binding-sites model also tried); settings: both partners purified
delta3-23ALG-2^∆GF = molecular target: B7; experiment: as above; settings: both partners purified
delta3-23ALG-2^WT [2] = molecular target: B3; experiment: as above; settings: both partners purified; remark: listed apart in the source
[3] = molecular target: the molecule itself; experiment: SEC; Sephacryl-S-200 HR (150 mL), 1 mL of each protein sample (5 µM), buffer B with 20 µM CaCl2; fractions by SDS-PAGE
delta3-23ALG-2^WT [4] = molecular target: B3; experiment: as above; settings: both partners purified
[5] = molecular target: B1; experiment: pull-down; GST-pulldown: purified His-SOUL (5 µM) and GST-ALG-2 (5 µM) with Glutathione Sepharose 4B in buffer B (100 mM Tris-HCl pH 7.5, 100 mM NaCl, 10% glycerol) with 20 µM CaCl2 (or various amounts of Ca2+), 30 min at 4 °C; SDS-PAGE, Coomassie; settings: both partners purified
[6] = molecular target: B1; experiment: ITC; His-SOUL (130 or 260 µM) injected into delta3-23ALG-2 (5 or 10 µM); 25 °C, pH 7.5, buffer C (25 mM HEPES, 150 mM NaCl, 10% glycerol) with 15 µM CaCl2 and 0.25% Tween 20; one-set-of-sites model (sequential-binding-sites model also tried); settings: both partners purified
[7] = molecular target: B6; experiment: pull-down; GST-pulldown: purified His-SOUL (5 µM) and GST-ALG-2 (5 µM) with Glutathione Sepharose 4B in buffer B (100 mM Tris-HCl pH 7.5, 100 mM NaCl, 10% glycerol) with 20 µM CaCl2 (or various amounts of Ca2+), 30 min at 4 °C; SDS-PAGE, Coomassie; settings: both partners purified

For B1, the dH (delta3-23ALG-2^WT [1]) was -17.9 ± 0.7 kcal/mol, the “stoichiometry N” value (delta3-23ALG-2^WT [1]) was 1.16 ± 0.02 and the dH (delta3-23ALG-2^∆GF) was -19.8 ± 2 kcal/mol. The “stoichiometry N” value (delta3-23ALG-2^∆GF) was 1 ± 0.07, the “Kd of the first binding (sequential-binding-sites model)” value (delta3-23ALG-2^WT [2]) was 37 nM and the “Kd of the second binding (sequential-binding-sites model)” value (delta3-23ALG-2^WT [2]) was 40 nM. The “stoichiometry N” value [3] was 2 and the “stoichiometry N” value (delta3-23ALG-2^WT [4]) was 1.

B2: GST-ALG-2^∆GF (natural protein, mouse, UniProt P12815 1-191, looked up)
chain: MAAYSYRPGPGGGPGPAAGAALPDQSFLWNVFQRVDKDRSGVISDNELQQALSNGTWTPFNPVTVRSIISMFDRENKAGVNFSEFTGVWKYITDWQNVFRTYDRDNSGMIDKNELKQALSGYRLSDQFHDILIRKFDRQGRGQIAFDDFIQGCIVLQRLTDIFRRYDTDQDGWIQVSYEQYLSMVFSIV
notes: ALG-2 (PDCD6), murine, natural splice variant with deletion of Gly121 and Phe122; made by PCR-based mutagenesis of the 1-191 construct; also called ALG-2^ΔGF; source: E. coli, purified (as GST-ALG-2)
B2: binds [5].

Binder B3 has a Kd [6] of 32.4 ± 6.6 nM.

B4: GST-ALG-2 W89A (natural protein, mouse, UniProt P12815 1-191, looked up)
chain: MAAYSYRPGPGGGPGPAAGAALPDQSFLWNVFQRVDKDRSGVISDNELQQALSNGTWTPFNPVTVRSIISMFDRENKAGVNFSEFTGVAKYITDWQNVFRTYDRDNSGMIDKNELKQALSGFGYRLSDQFHDILIRKFDRQGRGQIAFDDFIQGCIVLQRLTDIFRRYDTDQDGWIQVSYEQYLSMVFSIV
notes: ALG-2 (PDCD6), murine, 1-191 amino acids with W89A (pocket 3); source: E. coli, purified (as GST-ALG-2)
B4: binds [5].

B5: GST-ALG-2 F85A (natural protein, mouse, UniProt P12815 1-191, looked up)
chain: MAAYSYRPGPGGGPGPAAGAALPDQSFLWNVFQRVDKDRSGVISDNELQQALSNGTWTPFNPVTVRSIISMFDRENKAGVNFSEATGVWKYITDWQNVFRTYDRDNSGMIDKNELKQALSGFGYRLSDQFHDILIRKFDRQGRGQIAFDDFIQGCIVLQRLTDIFRRYDTDQDGWIQVSYEQYLSMVFSIV
notes: ALG-2 (PDCD6), murine, 1-191 amino acids with F85A (pocket 3); source: E. coli, purified (as GST-ALG-2)
B5: binds [5].

B6: binds [5].

For B7, the Kd [6] was 62 ± 13.7 nM.

B8: GST-ALG-2 I92A (natural protein, mouse, UniProt P12815 1-191, looked up)
chain: MAAYSYRPGPGGGPGPAAGAALPDQSFLWNVFQRVDKDRSGVISDNELQQALSNGTWTPFNPVTVRSIISMFDRENKAGVNFSEFTGVWKYATDWQNVFRTYDRDNSGMIDKNELKQALSGFGYRLSDQFHDILIRKFDRQGRGQIAFDDFIQGCIVLQRLTDIFRRYDTDQDGWIQVSYEQYLSMVFSIV
notes: ALG-2 (PDCD6), murine, 1-191 amino acids with I92A (pocket 3); source: E. coli, purified (as GST-ALG-2)
B8: binds [5].

B9: GST-ALG-2 L52A (natural protein, mouse, UniProt P12815 1-191, looked up)
chain: MAAYSYRPGPGGGPGPAAGAALPDQSFLWNVFQRVDKDRSGVISDNELQQAASNGTWTPFNPVTVRSIISMFDRENKAGVNFSEFTGVWKYITDWQNVFRTYDRDNSGMIDKNELKQALSGFGYRLSDQFHDILIRKFDRQGRGQIAFDDFIQGCIVLQRLTDIFRRYDTDQDGWIQVSYEQYLSMVFSIV
notes: ALG-2 (PDCD6), murine, 1-191 amino acids with L52A (pocket 3); source: E. coli, purified (as GST-ALG-2)
B9: binds [5].

B10: His-SOUL1-111 (domain or fragment, mouse, UniProt Q9WU63 1-111, looked up)
chain: MAEEPEPDLGVAEGSEDQALEMPSWKAPEDIDPQPGSYEIRHYGPAKWVSTCVESLDWDSAIQTGFTKLNGYIQGKNEKEMKIKLTAPVTSYVEPGSSPFSESTITISLYI
notes: SOUL (HEBP2), murine, residues 1-111; source: E. coli BL21(DE3) with pGroESL, purified (Ni-NTA-agarose, Sephadex G-25)
B10: binds [7].

B11: His-SOUL1-143 (domain or fragment, mouse, UniProt Q9WU63 1-143, looked up)
chain: MAEEPEPDLGVAEGSEDQALEMPSWKAPEDIDPQPGSYEIRHYGPAKWVSTCVESLDWDSAIQTGFTKLNGYIQGKNEKEMKIKLTAPVTSYVEPGSSPFSESTITISLYIPSEQQPDPPRPSESDVFIEDRAEMTVFVRSFD
notes: source: E. coli BL21(DE3) with pGroESL, purified (Ni-NTA-agarose, Sephadex G-25)
B11 was tested, and the Kd (delta3-23ALG-2^WT [2]) was 1300 nM and the “stoichiometry N” value (delta3-23ALG-2^WT [2]) was 1.

B12: His-SOUL mutant (36-111/126-205) without two PRRs (domain or fragment, mouse, UniProt Q9WU63 36-205, looked up)
chain: GSYEIRHYGPAKWVSTCVESLDWDSAIQTGFTKLNGYIQGKNEKEMKIKLTAPVTSYVEPGSSPFSESTITISLYIDVFIEDRAEMTVFVRSFDGFSSGQKNQEQLLTLANILREEGKVFNEKVFYTAGYSSPFQLLDRNNEVWLIQKNEPSVENK
notes: as for B11
B12: binds [7].
